B1: I430P: additional mutation in SEQ ID No: 17 (protein)
chain: MASSRTGAGAGGRVVVFPFPFQGHFNPVMRLARALHARGLAITVFHSGALDPADYPADYRFVPVTVEADPKLLASEDIAAIVTTLNASCDAPFRARLSALLAAEGRDSVRCVFTDVVWNAVLTASSDLGVPALGMMTASAASLRDYMAYRTLIDKGYLPVKEERKEDPVPELPPYLVKDLLRVDTSDLEEFAELLARTVTAARRASGLIFNTFPLIETDTLAEIHKALSVPVFAVAPLNKLVPTATASLHGVVQADRGCLQWLDTQQPGSVLYVSFGSFAAMDPHEFVELAWGLADSKRPFVWVVRPNLIRGFESGALPDGVEDEVRGRGIVVKWAPQEEVLAHPAVGGFLTHNGWNSTVEAISEGVPMVCCPRHGDQFGNMRYVCDVWKVGTELVGEQLERGQVKAAIDRLFGTKEGEEIKERMKEFKPAAAKGIGIGVDVDETASPRTDLTDLVDLIKSF
modifications: Mutated Zea mays Bx9 protein sequence
B2: F213W: additional mutation in SEQ ID No: 17 (protein)
chain: MASSRTGAGAGGRVVVFPFPFQGHFNPVMRLARALHARGLAITVFHSGALDPADYPADYRFVPVTVEADPKLLASEDIAAIVTTLNASCDAPFRARLSALLAAEGRDSVRCVFTDVVWNAVLTASSDLGVPALGMMTASAASLRDYMAYRTLIDKGYLPVKEERKEDPVPELPPYLVKDLLRVDTSDLEEFAELLARTVTAARRASGLIFNTWPLIETDTLAEIHKALSVPVFAVAPLNKLVPTATASLHGVVQADRGCLQWLDTQQPGSVLYVSFGSFAAMDPHEFVELAWGLADSKRPFVWVVRPNLIRGFESGALPDGVEDEVRGRGIVVKWAPQEEVLAHPAVGGFLTHNGWNSTVEAISEGVPMVCCPRHGDQFGNMRYVCDVWKVGTELVGEQLERGQVKAAIDRLFGTKEGEEIKERMKEFKIAAAKGIGIGVDVDETASPRTDLTDLVDLIKSF
modifications: Mutated Zea mays Bx9 protein sequence
B3: A431P: additional mutation in SEQ ID No: 17 (protein)
chain: MASSRTGAGAGGRVVVFPFPFQGHFNPVMRLARALHARGLAITVFHSGALDPADYPADYRFVPVTVEADPKLLASEDIAAIVTTLNASCDAPFRARLSALLAAEGRDSVRCVFTDVVWNAVLTASSDLGVPALGMMTASAASLRDYMAYRTLIDKGYLPVKEERKEDPVPELPPYLVKDLLRVDTSDLEEFAELLARTVTAARRASGLIFNTFPLIETDTLAEIHKALSVPVFAVAPLNKLVPTATASLHGVVQADRGCLQWLDTQQPGSVLYVSFGSFAAMDPHEFVELAWGLADSKRPFVWVVRPNLIRGFESGALPDGVEDEVRGRGIVVKWAPQEEVLAHPAVGGFLTHNGWNSTVEAISEGVPMVCCPRHGDQFGNMRYVCDVWKVGTELVGEQLERGQVKAAIDRLFGTKEGEEIKERMKEFKIPAAKGIGIGVDVDETASPRTDLTDLVDLIKSF
modifications: Mutated Zea mays Bx9 protein sequence

Experiment: UDP luminescence plate assay of E. coli extracts, mutants within SEQ ID No: 17, 2 mM metribuzin
Type: biochemical, Zea mays
Details: for metribuzin signal relative to the SEQ ID No:17 control (first parentheses) / ratio of metribuzin to DMSO signal (second parentheses) / SIGNAL: metribuzin signal of mutant divided by the signal of the SEQ ID No. 17 control / luminescence signal observed with 2 mM metribuzin: 2 mM metribuzin; for metribuzin signal relative to the SEQ ID No:17 control (first parentheses) / ratio of metribuzin to DMSO signal (second parentheses): additional mutation in SEQ ID No: 17; for SIGNAL: metribuzin signal of mutant divided by the signal of the SEQ ID No. 17 control: relative to SEQ ID No: 17 control; for luminescence signal in the DMSO control / luminescence signal observed with 2 mM metribuzin: additional mutations within SEQ ID No: 17; for luminescence signal in the DMSO control: DMSO in place of metribuzin; for luminescence signal observed with 2 mM metribuzin: control = SEQ ID No: 17
Procedure: Activities observed with metribuzin were generally lower in magnitude than seen with herbicide V in the previous examples. For example, in one plate assay run with 2 mM metribuzin using 5 ul of diluted extract of plate-grown BL21DE3 cells expressing w/t bx9 and assayed for 40 minutes (as described in Example 2) the UDP-Glo luminescence signal was ˜3.4 E6 as compared with ˜2.3E6 in the DMSO control and ˜1.7E6 in the H24A null mutant control. […] It was therefore important to assess potential improvements in the metribuzin activity of the various mutants relative to the wild type bx9 enzyme based not only on the H24A null activity control but also based upon controls with DMSO in place of metribuzin acceptor substrate. In some plate assays (using more dilute extracts) the metribuzin signals from the w/t enzyme was the same or barely greater than the DMSO control. Additionally, some mutations gave an increase in the ‘background’ UDP-glucose hydrolysis activity with just DMSO present that was the same or similar to the magnitude of the increase in signal seen with metribuzin. In these instances it is therefore uncertain from just this UDP-Glo assay method whether the specific metribuzin signal (glucosylation of metribuzin) is improved or not i.e. the signal seen with metribuzin may or may not all or to a large part be attributable to increased background hydrolysis). […] Thus the ratio of the metribuzin to DMSO signal as well as the increase in signal relative to the w/t bx9 is used to help distinguish those mutations most likely to offer the highest activity to metribuzin. A follow up assay monitored by, for example, LC MS is one method to distinguish these cases more quantitatively. The tables below summarise the results from two different sets of luminescence plate assays to detect single mutations giving improvements in the magnitude of the signal with metribuzin relative to w/t bx9 and/or the apparent specificity for metribuzin as measured by the deviation of the ratio of metribuzin to DMSO control activity from the bx9 w/t value of around unity.
A further separate screen was carried out to explore a library of additional mutations at various positions within the context of SEQ ID No: 17 for improved metribuzin activity. These were assayed, assessed and scored as above. […] These were S75K (2.5)(1.25), A236G (4.0)(1.15), A433V (3.3)(9.0) and R449C (1.8)(1.2).
A yet further and more comprehensive screen was carried out to explore saturation mutagenesis at all remaining amino acid positions within the context of SEQ ID No:17 for improved metribuzin activity. Again these were assayed, assessed and scored as above and the results of (out of the thousands screened) of the subset that were of interest are summarized in Table 16.

Molecule	metribuzin signal relative to the SEQ ID No:17 control (first parentheses)	ratio of metribuzin to DMSO signal (second parentheses)	SIGNAL: metribuzin signal of mutant divided by the signal of the SEQ ID No. 17 control	luminescence signal in the DMSO control	luminescence signal observed with 2 mM metribuzin
B1	2.8	1.34	2.82	3.83E+06	5.15E+06
B2	4.7	1.24	4.75	6.96E+06	8.66E+06
B3	2.8	1.32	2.81	3.87E+06	5.12E+06

Source: patent US20200270588A1, “GLUCOSYL TRANSFERASE POLYPEPTIDES AND METHODS OF USE” (Syngenta Participations AG, priority 2017, published 2020)
